From PMC10397247 come the findings set out here.

Assay in all cases: two-hybrid library CCmax;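 note: natural log of median RNA to DNA barcode read ratio; higher means stronger binding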
The target of one test is T1, 4H2143-AA.
T1 chain: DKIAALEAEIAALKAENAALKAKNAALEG

The target of the next test is T2, 4H2148-AA.
T2 chain: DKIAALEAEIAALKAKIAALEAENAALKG
The conditions noted are these: mean of both orientations.

The next test deals with T3, 4H2290-AA.
T3 chain: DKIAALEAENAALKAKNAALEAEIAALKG
Conditions: mean of both orientations.

In another test the target is T4, 4H2447-AA.
T4 chain: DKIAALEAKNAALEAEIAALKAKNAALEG
The conditions noted are these: mean of both orientations.

In a further test the target is T5, 4H2458-AA.
T5 chain: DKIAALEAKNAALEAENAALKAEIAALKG
Conditions: mean of both orientations.

For a further test, the target named is T6, 4H3330-AA.
T6 chain: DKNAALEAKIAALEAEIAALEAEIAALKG
The conditions noted are these: mean of both orientations.

The target in another test is T7, 4H716-AA.
T7 chain: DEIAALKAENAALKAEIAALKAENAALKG
Conditions: mean of both orientations.

A further test has as its target T8, 4H733-AA.
T8 chain: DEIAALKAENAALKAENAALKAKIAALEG
The conditions noted are these: mean of both orientations.

The target of a further test is T9, 4H807-AA.
T9 chain: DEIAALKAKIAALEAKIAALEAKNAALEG
Conditions: mean of both orientations.

A further test deals with T10, APC1015-AA.
T10 chain: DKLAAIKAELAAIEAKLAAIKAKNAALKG
Conditions: mean of both orientations.

A further test has as its target T11, APC1434-AA.
T11 chain: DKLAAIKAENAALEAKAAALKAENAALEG
Conditions: mean of both orientations.

The target in the next test is T12, APC2237-AA.
T12 chain: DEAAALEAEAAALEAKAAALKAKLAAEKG
Conditions: mean of both orientations.

The target of another test is T13, APC232-AA.
T13 chain: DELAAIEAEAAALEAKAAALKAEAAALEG
Conditions: mean of both orientations.

The target of another test is T14, APC2405-AA.
T14 chain: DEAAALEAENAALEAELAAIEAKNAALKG
The conditions noted are these: mean of both orientations.

A further test has as its target T15, APC3645-AA.
T15 chain: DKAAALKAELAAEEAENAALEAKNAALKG
The conditions noted are these: mean of both orientations.

Another test has as its target T16, APC4011-AA.
T16 chain: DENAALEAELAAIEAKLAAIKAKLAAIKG
Conditions: mean of both orientations.

A further test addresses T17, APC4264-AA.
T17 chain: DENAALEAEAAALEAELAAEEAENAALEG
Conditions: mean of both orientations.

The next test addresses T18, APC4436-AA.
T18 chain: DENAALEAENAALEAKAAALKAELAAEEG
Conditions: mean of both orientations.

A further test concerns the target T19, APC5383-AA.
T19 chain: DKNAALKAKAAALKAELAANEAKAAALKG
The conditions noted are these: mean of both orientations.

For the next test, the target named is T20, APC6108-AA.
T20 chain: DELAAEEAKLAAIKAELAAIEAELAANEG
Conditions: mean of both orientations.

For the next test, the target named is T21, APC7099-AA.
T21 chain: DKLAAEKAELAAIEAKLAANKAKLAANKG
Conditions: mean of both orientations.

Another test has as its target T22, APC8191-AA.
T22 chain: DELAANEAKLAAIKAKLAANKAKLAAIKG
The conditions noted are these: mean of both orientations.

The target in another test is T23, APC8910-AA.
T23 chain: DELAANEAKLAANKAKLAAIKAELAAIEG
Conditions: mean of both orientations.

Another test deals with T24, APC9096-AA.
T24 chain: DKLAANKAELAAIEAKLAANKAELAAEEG
The conditions noted are these: mean of both orientations.

A further test deals with T25, APC9319-AA.
T25 chain: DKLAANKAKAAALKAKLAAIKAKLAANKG
Conditions: mean of both orientations.

The next test deals with T26, P2-AA-1HGe-A.
T26 chain: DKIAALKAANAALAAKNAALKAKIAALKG
The conditions noted are these: mean of both orientations.

The target of a further test is T27, P2-AA-1HGe-D.
T27 chain: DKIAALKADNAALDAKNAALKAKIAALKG
The conditions noted are these: mean of both orientations.

The target in a further test is T28, P2-AA-1HGe-M.
T28 chain: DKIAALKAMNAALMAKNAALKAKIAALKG
The conditions noted are these: mean of both orientations.

The target of another test is T29, P2-AA-1HGe-Q.
T29 chain: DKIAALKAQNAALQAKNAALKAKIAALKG
Conditions: mean of both orientations.

Another test concerns the target T30, P2-AA-1HGe-T.
T30 chain: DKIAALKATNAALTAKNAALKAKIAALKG
The conditions noted are these: mean of both orientations.

A further test has as its target T31, P2-AA-1HGe-W.
T31 chain: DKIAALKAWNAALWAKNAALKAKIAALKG
The conditions noted are these: mean of both orientations.

For a further test, the target named is T32, P2-AA.
T32 chain: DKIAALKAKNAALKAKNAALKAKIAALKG
The conditions noted are these: mean of both orientations.

For the molecule DKIAALEAEIAALKAENAALKAKNAALEG [4H2143-AA], the interaction score is 2.12 with 4H2143-AA; -1.43 in the test with 4H2148-AA; -1.42 with 4H2290-AA; -1.64 with 4H2447-AA; -1.32 in the test with 4H2458-AA; -0.836 in the test with 4H3330-AA. Besides, the interaction score with 4H716-AA was -1.59; with 4H733-AA, -1.41; with 4H807-AA it was -1.57; with APC1015-AA, -1.78; with APC1434-AA it was -1.23; with APC2237-AA, -1.56. The interaction score in the test with APC232-AA is -2.06; with APC2405-AA, -1.48; in the test with APC3645-AA, -1.25; in the test with APC4011-AA it was -0.0916; with APC4264-AA it was -1.81; with APC4436-AA, -1.85. Also, the interaction score is -1.98 with APC5383-AA; -1.49 with APC6108-AA; -1.51 in the test with APC7099-AA; -1.3 with APC8191-AA; -1.84 with APC8910-AA; -1.82 with APC9096-AA. For the same molecule, the interaction score with APC9319-AA is -1.6.
Regarding DEIAALEAMNAALMAENAALEAEIAALEG [P1-AA-1HGe-M], the interaction score in the test with P2-AA-1HGe-A was determined as 2.28; with P2-AA-1HGe-D it was 2.01; with P2-AA-1HGe-M it was 2.29; with P2-AA-1HGe-Q, 1.9; with P2-AA-1HGe-T, 1.98; in the test with P2-AA-1HGe-W it was 2.3. The interaction score in the test with P2-AA stood at 2.14.
